Reference: paper PMC3335792, “M. tuberculosis Sliding β-Clamp Does Not Interact Directly with the NAD+ -Dependent DNA Ligase”

What was measured:
[1] = molecular target: T1, Mtb beta-clamp, OregonGreen488-labeled (Mycobacterium tuberculosis, UniProt P9WNU1 1-402); experiment: fluorescence intensity titration (OregonGreen-labeled protein); apparent Kd; abstract gives 300 nM; no Mg2+; 20 mM Tris-Cl pH 7.5, 1 mM DTT, 0.2 mM EDTA, 40 mM NaCl, 22 C, 200 or 500 nM labeled clamp; ex 490 nm, em 517 nm; details: protein: recombinant; tags: C-terminal 6xHis; OregonGreen488 maleimide; chain copies: 2; label: none in fluorescence assay; 32P in EMSA
T1 sequence: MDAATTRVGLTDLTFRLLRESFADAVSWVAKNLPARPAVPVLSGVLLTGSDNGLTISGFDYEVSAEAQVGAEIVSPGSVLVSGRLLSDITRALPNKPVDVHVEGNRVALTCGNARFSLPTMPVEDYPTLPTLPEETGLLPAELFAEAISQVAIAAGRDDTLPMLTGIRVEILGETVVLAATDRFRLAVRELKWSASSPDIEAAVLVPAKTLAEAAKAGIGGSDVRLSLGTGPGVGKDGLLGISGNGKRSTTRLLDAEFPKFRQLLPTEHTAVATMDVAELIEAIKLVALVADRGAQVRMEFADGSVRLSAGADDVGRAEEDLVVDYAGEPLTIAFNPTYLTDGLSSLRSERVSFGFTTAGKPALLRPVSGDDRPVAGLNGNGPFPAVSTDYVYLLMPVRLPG

[2] = molecular target: T1, Mtb beta-clamp, OregonGreen488-labeled; experiment: fluorescence intensity titration (OregonGreen-labeled protein); apparent Kd; no Mg2+; 20 mM Tris-Cl pH 7.5, 1 mM DTT, 0.2 mM EDTA, 40 mM NaCl, 22 C, 200 or 500 nM labeled clamp; ex 490 nm, em 517 nm; details: protein: recombinant, tags: C-terminal 6xHis, OregonGreen488 maleimide, chain copies: 2, label: none in fluorescence assay, 32P in EMSA

B1: 18/28-mer primed template (mixed)
DNA 1: TTTTTTTTTTCCCTTGCTATACGATGGG
DNA 2: CCCATCGTATAGCAAGGG
B1 gave a Kd [1] of 326 nM.

B2: blunt duplex 18/18 (dsDNA)
DNA 1: CCCATCGTATAGCAAGGG
DNA 2: CCCTTGCTATACGATGGG
Work on B2 yielded a Kd ([2]; blunt) of 557 nM.

B3: nicked duplex (28-mer template + 18-mer + dA10) (dsDNA)
DNA 1: TTTTTTTTTTCCCTTGCTATACGATGGG
DNA 2: CCCATCGTATAGCAAGGG
DNA 3: AAAAAAAAAA
B3 gave a Kd ([2]; nicked duplex, 18-mer and 10-mer annealed to 28-mer, blunt ends) of 530 nM.
